Our source for the Km, kcat and kcat/Km values is PMC6987092, “Characterization and diversity of the complete set of GH family 3 enzymes from Rhodothermus marinus DSM 4253” (Scientific Reports, 2020).

One series concerns the target T1, RmXyl3B (Rhodothermus marinus, UniProt D0MHL5).
T1 construct: gene Rmar_1081; locus tag is that of the type strain DSM 4252T homolog, gene cloned from DSM 4253
The series can be described thus: pNP release at […] nm. As to conditions: 20 mM citrate phosphate pH 5.6, 60 °C. It counts as biochemical.

Substrate in series [1]: O=[N+]([O-])c1ccc(O[C@@H]2O[C@H](CO)[C@@H](O)[C@H](O)[C@H]2O)cc1
Nature of the series: purified protein. As to conditions: 20 mM citrate phosphate pH 5.6, 60 °C.

Substrate in series [2]: O=[N+]([O-])c1ccc(O[C@@H]2OC[C@@H](O)[C@H](O)[C@H]2O)cc1
The series can be described thus: purified protein. As to conditions: 20 mM citrate phosphate pH 5.6, 60 °C. In kind it is biochemical, Rhodothermus marinus.

Substrate in series [3]: CC(=O)N[C@H]1[C@H](Oc2ccc([N+](=O)[O-])cc2)O[C@H](CO)[C@@H](O)[C@@H]1O
The series can be described thus: purified protein. In kind it is biochemical, Rhodothermus marinus. As to conditions: 20 mM sodium phosphate buffer, 60 °C.

T1 sequence (D0MHL5 entry or part of it): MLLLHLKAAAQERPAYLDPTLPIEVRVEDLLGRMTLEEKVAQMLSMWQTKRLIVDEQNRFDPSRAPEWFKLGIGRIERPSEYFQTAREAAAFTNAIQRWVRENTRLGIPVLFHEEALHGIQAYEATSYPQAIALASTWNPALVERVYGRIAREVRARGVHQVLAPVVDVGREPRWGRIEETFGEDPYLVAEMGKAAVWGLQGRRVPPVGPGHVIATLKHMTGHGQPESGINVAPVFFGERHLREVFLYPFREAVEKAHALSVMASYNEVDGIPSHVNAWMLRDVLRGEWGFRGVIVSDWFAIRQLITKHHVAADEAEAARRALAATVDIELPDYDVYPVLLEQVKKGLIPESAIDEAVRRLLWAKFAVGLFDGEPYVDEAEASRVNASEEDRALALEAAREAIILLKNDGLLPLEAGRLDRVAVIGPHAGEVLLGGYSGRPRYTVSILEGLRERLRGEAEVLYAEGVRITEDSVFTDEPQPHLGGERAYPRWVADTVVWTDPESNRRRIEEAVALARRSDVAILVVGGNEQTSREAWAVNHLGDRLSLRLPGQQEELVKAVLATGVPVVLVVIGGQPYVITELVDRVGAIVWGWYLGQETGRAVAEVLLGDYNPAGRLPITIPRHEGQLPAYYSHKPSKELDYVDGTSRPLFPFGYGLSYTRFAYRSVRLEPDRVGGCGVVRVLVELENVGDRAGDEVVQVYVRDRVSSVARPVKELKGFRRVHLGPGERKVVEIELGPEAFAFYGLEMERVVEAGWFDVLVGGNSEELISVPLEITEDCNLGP

By Km is commonly meant the concentration of substrate that gives half-maximal velocity. Turning to `O=[N+]([O-])c1ccc(O[C@@H]2OC[C@@H](O)[C@H](O)[C@H]2O)cc1` [pNP-β-Xyl], the Km at RmXyl3B came out at 300 µM.

On to `O=[N+]([O-])c1ccc(O[C@@H]2O[C@H](CO)[C@@H](O)[C@H](O)[C@H]2O)cc1` [pNP-β-Glc], for which the Km on RmXyl3B stood at 1600 ± 400 µM.

B1: RmBgl3A (Rhodothermus marinus DSM 4252) (protein)
chain: MRTLRLLTLSLLWSGWLLPAIAQVDRAREDSLIEALLARMTLEEKLGQLTLYNGGMAETGPVVREGEPDAIRRGRVGAVMNFFGAEAVCAMQRQAVEESRLGIPLLFALDVIHGFRTIFPVPLAEAATFDPALVEQAARVAAGEASAVGLNWTFAPMVDIARDARWGRIVEGSGEDPYLGAVMAAARVRGFQGRDLRDPTTILATAKHFAAYGAAEAGRDYNTVDVSERTLREVYLPPFEAAVRAGALSIMSAFNEIGGVPATADRWLLTDVLRHEWGFEGLVVSDYTSVWELLFHGIAADSAEVGRKALEAGVDMDMVSGIYVRKLAEEVRAGRLSEAVVDEAVRRVLRVKYRLGLFEDPYRYCRDASREQVLLSPAHRRLAREVARKAIVLLKNEGELLPLADTLQRVAVIGALANDSASVLGPWAAAGRPEDAVTILEGIRAALPGATVRYAPGYAEVPSGSFQEMVAAALSPDTSGFAEAEAVARWAEVVILVLGEHRELSGEAASRASVELPGVQLALAWRLLALGRPVVVVLMNGRPLAIPELAASAPAIVEAWFLGTEMGHAVADVLLGKASPGGRLPVSFPRATGQEPLYYNHKPTGRPPRAEEKYTSKYVDVPWTPLYPFGYGLTYTTFAYDSLRLSRRRLGLDDTLEVVVSVTNTGRRRGEEVVQLYVRDEVASVTRPVKELKGFARVELAPGETKAVQFRLPVRALRFWGLEGGWVVEPGWFTLWVGPSSAEGLQARFEVVSP
notes: recombinant in E. coli BL21 C43 (pJOE3075), C-terminal His-tag, no signal peptide predicted; locus tag is that of the type strain DSM 4252T homolog, gene cloned from DSM 4253
What is called kcat is the number of substrate molecules converted per active site and unit of time at saturation. As usually defined, the kcat/Km is the turnover number divided by the Michaelis constant. In the case of B1, in the series “purified protein [1]”, the Km was 100 ± 0 µM, the kcat came out at 79.9 s⁻¹ and the kcat/Km was 755000 M⁻¹ s⁻¹. Also, in “purified protein [2]”, the Km came out at 11800 ± 1000 µM, the kcat worked out at 140.8 ± 0.6 s⁻¹ and the kcat/Km was 12000 M⁻¹ s⁻¹.

B2: RmNag3 (Rhodothermus marinus DSM 4252) (protein)
chain: HRSELDTAPPDRTRPGAWTETQLRTLTLAQQIGQLFAVRARGVFQSVDDPDYRELVRLVEQFQVGGVIFFQGDPYSQAMLANELQRRSRLPLLIAQDTEWGVAMRVRRTTSFPRAMAIGATGNPDYAYAVGYVTAREARALGVHQLYAPVADVNNNPMNPIINVRAFGEDPLQVATMVRAFVRGVQDAGAIATAKHFPGHGDTSIDSHSDLPVLRFDRKRLDTLELVPFRAAIKAGVQSIMTGHLALPRLDPTPNLPASLSRRITHELLREELGFDGLVVTDALEMQGVTKHFGVGEAAVRALEAGADMLLLSEDVEAARSAILQAVAQGRLSRARIEASVRRILLAKERLGLHRERLVDLNAIPYVVGIAPHQALSQTIARASLTLLRNEGNLLPLPDVPATPRQLQVIILSDSDDPATGRFFVQTLREIAPDDRIASRLLDVRSHPDDYRAALEAAARADVVLVPAYLFVRSGTGRIRLPERQRTFLDALIAQGRPVVLIAFGNPYLIMDLQRPPAVYLAAYGGSESTQRAAVQAIFGQAPFTGRLPITIPGHFQRGDGLQLEQVAPRLAYPEEVGMSTQRLYRVDSLLRAAIADSAFPGAAVAIGRGPAIVWLKGYGHFTYTSDQRVTPSSVFDLASLTKVVVTTTAAMQLYEAGKLDLDAPVVRYLPEFGQNGKERVTIRQLLSHTAGLAPFHPFHRMGITTAEAVRQAILSDSLIYEPGTQSRYSDLGMIVLGWVIERITGQPLDRYAAEHIFRPLGMRHTGFRPVGRPDTTVVPTEIDTIFRHRLIQGEVHDETAWILGGVAGHAGLFSTAEDLARFAYMLVNEGRIGGRPFLKPETIRLFTTPVDPERAGTRALGWDTRSREGYSSAGRLFGSRSFGHTGFTGTSIWIDPDQQLFVILLTNRVYPTRENRKHLAVRARLADLAYEALIGPPTLNLNALLP
notes: recombinant in E. coli BL21 C43 (pJOE3075), signal peptide removed, C-terminal His-tag, includes beta-lactamase domain; locus tag is that of the type strain DSM 4252T homolog, gene cloned from DSM 4253
B2: in “purified protein [3]”, the Km turned out to be 100 ± 0 µM, the kcat was 102 ± 3 s⁻¹ and the kcat/Km was determined as 1.31e+06 ± 50300 M⁻¹ s⁻¹.

B3: RmXyl3A (Rhodothermus marinus DSM 4252) (protein)
chain: QERPAYLDPTLPIEVRVEDLLGRMTLEEKVAQMLSMRQTKRLIVDEQNRFDPSRAPEWFKLGIGRIERPSEYFQTAREAAAFTNAIQRWVRENTRLGIPVIFHEEALHGLRAAEATSYPQAIALASTWNPALVERVYGRIAREVRARGVHQVLAPVVDVGREPRWGRIEETFGEDPYLVAEMGKAAVWGLQGRRVPPVGPGHVIATLKHMAGHGQPESGINVAPVFFGERHLREVFLYPFREAVEKAHALSVMASYNEIDGIPSHANAWMLRDVLRGEWGFRGVIVSDWHGIPQLITRHHVAENLEEAARLALQATVDVELPDYEAYATLVDQVRRGLIPELAVDEAVRRLLWAKFAVGLFDGEPYVDEAEASRVNASEEDRALALEAAREAIILLKNDGLLPLEAGRLDRVAVIGPHAGEVLLGGYSGRPRYTVSILEGLRERLRGEAEVLYAEGVRITEDSVFTDEPQPHLGGTWARQRNAAHRVVFTPPEANRSRIEEAVALARTSDVVVLVVGGNEQTAREAYAPYHLGDRLSLRLPGQQEELVKAVLATGVPVVLVVIGGRPYVITELVDRVGAIVWGWYLGQETGRAVAEVLLGDYNPAGRLPITIPRHEGQLPAYYSHKPSKELDYVDGTSRPLFPFGYGLSYTRFAYRSVRLEPDRVGGCGVVRVLVELENVGDRAGDEVVQVYVRDRVSSVARPVKELKGFRRVHLGPGERKVVEIELGPEAFAFYGLEMERVVEAGWFDVLVGGNSEELISVPLEITEGCNLGR
notes: locus tag is that of the type strain DSM 4252T homolog, gene cloned from DSM 4253
With B3, in “purified protein [1]”, the Km was 6500 ± 800 µM, the kcat worked out at 29.2 s⁻¹ and the kcat/Km came to 4500 M⁻¹ s⁻¹. Further, in “purified protein [2]”, the Km is 400 ± 0 µM, the turnover number (kcat) turned out to be 50.1 ± 1.9 s⁻¹ and the kcat/Km was 140000 ± 15700 M⁻¹ s⁻¹.

B4: RmBgl3C (Rhodothermus marinus DSM 4252) (protein)
chain: CQKAEQQPPSTAAFPPLSSYDEQARALLEQMTLEEKIGQMIQAEQAFLQDPYDIQTYHLGSILSGGNSDPADGNSLEAWTEVYDSLQAIALRTRLGIPLLYGIDAVHGHSNVEGAVVFPHHIGLGATRDPDLVERVYRITAIEMRATGIHWNFAPCIAVARDERWGRTYESFSEDPELVATLGAAAVRGLQNGGLNNPLAVLATAKHFAGDGGTAFGTGGPQGALLDQGDVRLDEATFRRIHVRPYIDAIQAGVGSIMVSYSSWNGVKMTGHKYMLTDVLKGELGFEGIVISDYNAIDQVHPDYKTAIEIAINAGIDMAMVPTRYREFFQLLKELVEEGRVPMERIDDAVLRILRVKFAMGLMDGPEHVFADRSLWAKFGSAEHRAVAREAVRKSLVLLKNENQTLPLAKDLGRIHVAGLHADNLGYQAGGWTIDWQGGSGDITEGTTILEAIRKAVAPGTEVTYSEDGSGAAGADVAIAVIGERPYAEFLGDRSDLSLDPDDVAVVRRLKEAGVPVVVILISGRPMIINDVLEMADAFIAAWLPGSEGDGVADVLFGDYAPTGKLPFSWPRSMDQIPINVGDEDYDPLFPFGYGLTY
With B4, in the series “purified protein [1]”, the Km stood at 1600 ± 900 µM, the kcat stood at 67.2 s⁻¹ and the kcat/Km came out at 42900 M⁻¹ s⁻¹.

B5: RmBgl3B (Rhodothermus marinus DSM 4252) (protein)
chain: QSSRVDSLLAAMTLAEKISLLHGAIDPTGEAGAGYVPGVPRLGIPAMRLTDGPAGIRTRHPATALPAPVALAASFDPELAYRYGHVMGIEGRARRHEVLLSPMVNIVRVPEAGRNFETFSEDPLLSAEMVAAEVRGIQDAGMMATVKHYVANNFENDRMRVNVVVDERTLREIYLPGFEAAIKAGAAAVMCAYNRVNGPYACDNEMLLTDILRDEWGFEGWVMTDWFAGHSLESLVRGLDQEMPGYTIPFSSPDMPLAPAVFADSLLAAVESGRIDEAYVDRAVRRILVQMEQFGLLDGESTPPEINIEAHAAVAREVAEAGAVLLRNENQTLPLSERDLQHLVVIGPTATRPLIGGGGSSRVQPFRTTSTLAALQELAGPQAQIRYVPGIDLDGMPVPSSALRTPDGQPGLLRQGADGTTQVDAQLDFTGERALPPGSQWTWTGTLTAPTAGVYELKLQTAGGVGTLSIDGQPVLRTGMFFSDASLIPTADSLENATYRIELQAGQQLSLTVQISGQVPSLPFLPAGQNPVQVRLAWVTPERRAAFLEEAAEAARAAHAAIVFVYEEGTEGRDRETLALRPDQDALVEAVAAANPRTTVVMNVGAPTLMPWAERVGAILLMWYPGQEGGWATADVLLGRANPAGRLPVTFPRRAEDAPTASPERYPGVDLTARYDEGIFVGYRWYDAQQIEPLFPFGHGLSYTTFAYENLRVEPDGDGFVVRFVVRNTGDRAGSDVPQVYLGPPENPPVPMAVRQLVGFRRVTLAPGEAQEVTVRIDGRALSYWSVEDHAWVKATGRRTLYVGASARDLRLQTEIDVQ
notes: recombinant in E. coli BL21 C43 (pET-21b(+)), signal peptide removed, C-terminal His-tag; locus tag is that of the type strain DSM 4252T homolog, gene cloned from DSM 4253
For the molecule B5, in the series “purified protein [1]”, the Km came out at 100 ± 0 µM, the kcat is 49.5 s⁻¹ and the kcat/Km stood at 511000 M⁻¹ s⁻¹. Besides, in the series “purified protein [2]”, the Km amounted to 1200 ± 100 µM, the kcat came to 65.8 ± 0.4 s⁻¹ and the kcat/Km was determined as 56200 ± 700 M⁻¹ s⁻¹.
